This assay has as its target human TNFα (human) (UniProt P01375). The assay can be described thus: cell-based or functional assay.

IC50 (nM, replicate 2), inhibition of TNFα signaling in HEK-BLUE TNFα cells data for 1 substance are collected here from patent US20250353906A1.

human TNFα (human), sequence (P01375 77-233 limits assumed): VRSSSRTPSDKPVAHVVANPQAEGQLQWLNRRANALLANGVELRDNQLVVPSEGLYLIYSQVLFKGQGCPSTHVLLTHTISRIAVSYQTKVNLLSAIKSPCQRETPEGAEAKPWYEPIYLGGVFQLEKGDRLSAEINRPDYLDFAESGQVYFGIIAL

Consider Etanercept (PRO078) (Fc fusion), for which the IC50 (nM, replicate 2), inhibition of TNFα signaling in HEK-BLUE TNFα cells was determined as 0.07 nM.
